The values below come from patent publication US10081667B2, “Composition and method for therapeutic agent delivery during pregnancy” (University of Mississippi Medical Center, priority 2013, dated 2018).

Where two headings read alike, the source gives them in different places. Where no end group is shown, it is not given here.

The nature of data set [1]: Pharmacokinetics and biodistribution of SynB1-ELP-p50 versus free p50 peptide in pregnant rats.
Data set [2] can be described thus: Plasma levels and biodistribution after chronic infusion by IP minipump GD14-GD19. Type of data set: in vivo, rats. The method, then:
FIG. 7 includes images and graphs showing plasma levels and biodistribution of FLPs after Chronic Infusion. FIG. 7A. Rhodamine-labeled ELP or SynB1-ELP was administered chronically by IP minipump from GD14-GD19. Plasma was sampled throughout the experiment, and polypeptide levels were determined relative to standards of the injected protein. Data represent the mean±s.d. of four rats per group. FIG. 7B. Ex vivo fluorescence imaging of eight pups and corresponding placentas from one rat from each group is shown. FIG. 7C. Fluorescence intensities were quantified, corrected for autofluorescence, and fit to standards of the injected proteins. Data represent the mean±s.e. of eight placentas and eight pups per rat and four rats per group. *Statistically significant as determined by a two-way ANOVA with post-hoc Bonferroni multiple comparisons (p<0.05). **Levels were not detectable over autofluorescence.
Whether the fetal exclusion held after five days of continuous infusion of the polypeptides is also examined. ELP or SynB1-ELP was administered continuously from GD14 to GD19 using an IP minipump. […] At the dose used (30 mg/kg/day), the plasma levels were maintained at 33.94 μg/mL for ELP and 69.15 μg/mL for SynB1-ELP. These plasma levels are a reflection of many in vivo kinetic processes, including the rate of transport from the peritoneal fluid to the blood, the rate of extravasation from the blood to the tissues, and the plasma clearance rate. […] These plasma concentration data also provide useful information for the formulation of dosages when ELP is fused with therapeutic agents.
Ex vivo whole organ fluorescence analysis of the placentas is performed, pups, and organs on GD19 following five days of continuous polypeptide infusion. Relative to the acute experiment, the placental levels of the polypeptides were lower, which resulted from the difference in dose (100 mg/kg in the bolus dosing versus 30 mg/kg/day in the chronic infusion). […] The kidneys still accumulated the most polypeptide, followed by the liver and the placenta (FIG. 7C). […]

For data set [3] the following is noted: rat, in vivo.
The conditions of data set [4]: rat, in vivo. The source holds these as a separate data set.
A short description of data set [5]: Biodistribution of fluorescently labeled ELP / SynB1-ELP in pregnant rats after IV bolus (ex vivo imaging, frozen sections). Also on record: species or system Sprague Dawley rats. The method, then: FIG. 2 includes a series of images and a graph showing the biodistribution of ELP in pregnant rats. FIG. 2A. The ELP drug carrier was labeled with AlexalFluor633 and infused into normal pregnant Sprague Dawley rats by IV injection (100 mg/kg). 4 h after injection, ex vivo images of placentas, pups, and major organs were collected using an IVIS Spectrum. FIG. 2B. Fluorescence intensity was quantified in all tissues. Error bars represent the standard deviation of 3 rats.
FIG. 3 includes a series of images and a graph illustrating placental distribution of ELP and SynB1-ELP. FIG. 3A. After IV administration of fluorescently-labeled polypeptides or saline control, placentas, pups, and major organs were removed and imaged ex vivo using an IVIS Spectrum. Polypeptide deposition in placentas and pups is shown. FIG. 3B. Fluorescence levels in placentas, pups, and major organs was quantified using Living Image software. Error bars represent the standard deviation of four rats per treatment group. FIG. 3C. Frozen sections of intact placentas and pups were cut, stained with the actin-specific rhodamine-phalloidin to allow visualization of the placenta and pups, and scanned using a florescence slide scanner. FIG. 3D. The same slides were imaged using a florescence microscope to visualize the cellular localization of the polypeptides in the placenta (100× magnification).
Pregnant Sprague Dawley rats on day 14 of gestation were injected with fluorescently labeled ELP (100 mg/kg IV). […] Placentas and pups were dissected from the amniotic sacks and imaged ex vivo using an IVIS Spectrum animal imager to detect and quantitate the ELP levels. […] In contrast, almost no ELP was detectable in the pups. The image intensities of the placentas, pups, and major organs were quantitated using Living Image software, and the results are shown in FIG. 2B. […] These high ELP levels in the placenta are unprecedented with this molecule. By way of comparison, the placenta levels are 2 to 10 fold higher than the tumors levels (Bidwell G L, et al., PloS One, 2013; Bidwell G L, 3rd, Cancer Lett., 2012).
This example also examined whether the addition of a CPP to ELP would affect its penetration across the placenta. SynB1-ELP was labeled with Alexa633 and injected as described above. For comparison, animals were injected with saline control or ELP-Alexa633 at an equivalent dose. Four hours after injection, placental, fetal, and organ levels were determined by ex vivo fluorescence imaging. […] In addition to the ex vivo fluorescence imaging, the fetal-amnio-placental complex was removed, rapidly frozen, and sectioned using a cryomicrotome. Tissue sections were stained with the actin-specific rhodamine-phalloidin to allow visualization of all tissue and imaged directly using a fluorescence slide scanner. […] The intraplacental distribution SynB1-ELP-Alexa633 differed slightly from ELP-Alexa633. […] Both polypeptides could be detected within the cells of the placenta when examined microscopically (FIG. 3D).

The subject of the next data set is trophoblast cells. The following applies: rat, in vivo.
Data set [6] has as its system human umbilical vein endothelial cells (HUVECs). Description: HUVEC proliferation, MTS cell proliferation assay. The conditions noted are these: 72 h exposure. Type of data set: cell-based. The method, then:
FIG. 9 is a bar graph showing ELP-VEGF stimulation of HUVEC proliferation. HUVEC cell proliferation was determined after 72 h exposure to ELP, VEGF, or ELP-VEGF at the indicated concentrations using the MTS cell proliferation assay.
Proliferation of human umbilical vein endothelial cells (HUVECs) is stimulated when the cell are exposed to VEGF.

The nature of data set [7]: ELP-VEGF pharmacokinetics and biodistribution in mice after bolus IV. Type of data set: in vivo, C57/B16 mice. The method, then:
FIG. 12 includes graphs showing ELP-VEGF pharmacokinetics and biodistribution. FIG. 12A. Fluorescently labeled free VEGF or ELP-VEGF were administered by IV injection to C57/B16 mice. Plasma levels were determined by direct fluorescence quantitation and fit to a two-compartment pharmacokinetic model. FIG. 12B. […] FIG. 12D.
In addition to examining the ELP-VEGF activity in vitro, the pharmacokinetics (PK) and biodistribution of ELP-VEGF in comparison to free VEGF121 is also determined. Both free VEGF121 and ELP-VEGF were fluorescently labeled, and their PK and biodistribution were determined in mice after bolus intravenous administration. […] This is consistent with other reports of approximately a 30 minute half-life for recombinant VEGF in humans. ELP-VEGF cleared more slowly than free VEGF121 (FIG. 12A). […] Four hours after the infusion, the biodistribution was determined by ex vivo whole organ fluorescence imaging.

As for VQRKRQKLMP [p50 peptide], the “initial plasma levels relative to SynB1-ELP-p50 levels” value in data set [1] (100 mg/kg single bolus, pregnant rats) is “about 100 fold lower”. In data set [1] (four hours after injection), the “entry into fetal circulation / pups” value was “freely entered the fetal circulation and was visible in the pups”; the “total placental levels relative to SynB1-ELP-p50” value is recorded as “thirty fold lower”.

B1: ELP: elastin-like polypeptide drug carrier, repeats of VPGXG; unmodified carrier, fluorescently labeled for the tests (protein)
chain: VGVPGAGVPGGGVPGAGVPGGGVPGAGVPGGGVPGAGVPGGGVPGAGVPGGGVPGAGVPGGGVPGAGVPGGGVPGAGVPGVGVPGAGVPGGGVPGAGVPGGGVPGAGVPGGGVPGAGVPGGGVPGAGVPGGGVPGAGVPGGGVPGAGVPGGGVPGAGVPGVGVPGAGVPGGGVPGAGVPGGGVPGAGVPGGGVPGAGVPGGGVPGAGVPGGGVPGAGVPGGGVPGAGVPGGGVPGAGVPGVGVPGAGVPGGGVPGAGVPGGGVPGAGVPGGGVPGAGVPGGGVPGAGVPGGGVPGAGVPGGGVPGAGVPGGGVPGAGVPGVGVPGAGVPGGGVPGAGVPGGGVPGAGVPGGGVPGAGVPGGGVPGAGVPGGGVPGAGVPGGGVPGAGVPGGGVPGAGVPGVGVPGAGVPGGGVPGAGVPGGGVPGAGVPGGGVPGAGVPGGGVPGAGVPGGGVPGAGVPGGGVPGAGVPGGGVPGAGVPGVGVPGAGVPGGGVPGAGVPGGGVPGAGVPGGGVPGAGVPGGGVPGAGVPGGGVPGAGVPGGGVPGAGVPGGGVPGAGVPGVGVPGAGVPGGGVPGAGVPGGGVPGAGVPGGGVPGAGVPGGGVPGAGVPGGGVPGAGVPGGGVPGAGVPGGGVPGAGVPGGGVPGAGVPGGGVPGAGVPGGGVPGAGVPGGGVPGAGVPGGGVPGAGVPGGGVPGAGVPGGGVPGAGVPGGGVPGAGVPGVGVPGAGVPGGGVPGAGVPGGGVPGAGVPGGGVPGAGVPGGGVPGAGVPGGGVPGAGVPGGGVPGAGVPGGGVPGAGVPG
modifications: Alexa633 label; synthetic ELP
notes: elastin-like polypeptide drug carrier, repeats of VPGXG; unmodified carrier, fluorescently labeled for the tests
On to B1, for which the “steady state plasma level” value in data set [2] (30 mg/kg/day IP minipump GD14-GD19) was determined as 33.94 µg/mL. In data set [2] (GD19, five days continuous infusion), the placental accumulation result is reported as “accumulated at high levels in the placenta”. Besides, the level in pups result in data set [2] (GD19, five days continuous infusion, 30 mg/kg/day) is listed as “undetectable over autofluorescence in the pups”. In addition, the “total signal in degraded bands <50 kDa” value in data set [3] was “less than 20%”. Further, the level in pups entry in data set [4] is recorded as “Neither peptide was detectable in the pups”. In addition, the “placental accumulation relative to other organs” value in data set [5] (4 h after 100 mg/kg IV) is on record as “nearly equivalent to levels in the liver”. For the same molecule, in data set [5] (4 h after 100 mg/kg IV, GD14), the “level in pups, ex vivo fluorescence imaging” value is on record as “barely detectable over autofluorescence in the pups” and the “placental accumulation, ex vivo fluorescence imaging” value was “accumulated strongly in the placenta”. In data set [5] (4 h after IV injection), the “placental accumulation, frozen sections, fluorescence slide scanner” value is given as “accumulated at high levels in the placenta relative to autofluorescence controls” and the “polypeptide in pups, frozen sections, fluorescence slide scanner” value is “no polypeptide was detectable in the pups”. Further, the intraplacental distribution entry in data set [5] (frozen sections) is reported as “accumulated at high levels throughout the placenta”. The half-life entry in data set [5] (pregnant rats GD14, 100 mg/kg IV) was “Four hours after injection, which is about one half-life”. Further, in the data set with trophoblast cells, the “accumulation in trophoblast cells” value is “accumulated in the cytoplasm of trophoblast cells” and the “polypeptide in interior of chorionic villi (fetal blood)” value is “contained no ELP or SynB1-ELP”.

B2: VEGF121: free recombinant vascular endothelial growth factor VEGF121, comparator (protein)
chain: MSKGPGVGVPGAGVPGGGVPGAGVPGGGVPGAGVPGGGVPGAGVPGGGVPGAGVPGGGVPGAGVPGGGVPGAGVPGGGVPGAGVPGVGVPGAGVPGGGVPGAGVPGGGVPGAGVPGGGVPGAGVPGGGVPGAGVPGGGVPGAGVPGGGVPGAGVPGGGVPGAGVPGVGVPGAGVPGGGVPGAGVPGGGVPGAGVPGGGVPGAGVPGGGVPGAGVPGGGVPGAGVPGGGVPGAGVPGGGVPGAGVPGVGVPGAGVPGGGVPGAGVPGGGVPGAGVPGGGVPGAGVPGGGVPGAGVPGGGVPGAGVPGGGVPGAGVPGGGVPGAGVPGVGVPGAGVPGGGVPGAGVPGGGVPGAGVPGGGVPGAGVPGGGVPGAGVPGGGVPGAGVPGGGVPGAGVPGGGVPGAGVPGVGVPGAGVPGGGVPGAGVPGGGVPGAGVPGGGVPGAGVPGGGVPGAGVPGGGVPGAGVPGGGVPGAGVPGGGVPGAGVPGVGVPGAGVPGGGVPGAGVPGGGVPGAGVPGGGVPGAGVPGGGVPGAGVPGGGVPGAGVPGGGVPGAGVPGGGVPGAGVPGVGVPGAGVPGGGVPGAGVPGGGVPGAGVPGGGVPGAGVPGGGVPGAGVPGGGVPGAGVPGGGVPGAGVPGGGVPGAGVPGVGVPGAGVPGGGVPGAGVPGGGVPGAGVPGGGVPGAGVPGGGVPGAGVPGGGVPGAGVPGGGVPGAGVPGGGVPGAGVPGVGVPGAGVPGGGVPGAGVPGGGVPGAGVPGGGVPGAGVPGGGVPGAGVPGGGVPGAGVPGGGVPGAGVPGGGVPGAGVPGWPGSGAPMAEGGGQNHHEVVKFMDVYQRSYCHPIETLVDIFQEYPDEIEYIFKPSCVPLMRCGGCCNDEGLECVPTEESNITMQIMRIKPHQGQHIGEMSFLQHNKCECRPKKDRARQEKCDKPRR
modifications: synthetic ELP-VEGF sequences
notes: free recombinant vascular endothelial growth factor VEGF121, comparator
Turning to B2, in data set [6], the “stimulation of HUVEC proliferation” value is “stimulated HUVEC proliferation with equal potency”. For the same molecule, the terminal plasma half-life entry in data set [7] (bolus IV, 2-compartment PK model) is reported as “approximately 30 minutes”. For the same molecule, in data set [7] (four hours after the infusion), the “organ accumulation, ex vivo whole organ fluorescence imaging” value was “accumulated most highly in the kidneys and the liver”.
